Measurements published in paper PMC11380581 (Cell, 2024).

Key:
[1] = target: NRC3-L21E-3xFlag (active NRC3); assay: negative-stain EM
[2] = target: Flag-tagged NRC4 co-expressed with HA-tagged Bs2 and AvrBs2 (Figure S6F) (N. benthamiana); assay: native gel or EMSA
cryo-EM structure [3] = target: the molecule itself; assay: cryo-EM structure
cryo-EM structure [4] = target: the molecule itself; assay: cryo-EM structure; remark: listed apart in the source
negative-stain EM = target: the molecule itself; assay: negative-stain EM
[5] = target: the molecule itself; assay: native gel or EMSA + other: negative-stain EM

Work on “NRC3-L21E-3xFlag (active NRC3) (natural protein)” yielded a stoichiometry N [1] of 6.

In the case of “Flag-tagged NRC4 co-expressed with HA-tagged Bs2 and AvrBs2 (Figure S6F) (from UniProt A0A5J6DCT7 1-881) (natural protein)”, the stoichiometry N [2] is reported as 6.

B1: NRC4 L9E D478V (NLR Required for Cell Death 4 with the L9E and D478V mutations) (natural protein, N. benthamiana)
chain: MADAVVNFEVENLLQLLTDNVKLIGSAKGELENLLKEVQHLKGFLDDAAKLPSDSEQWKVLVEEIQKTVHTAEDAVDKFVVQAKLHKEKNKMARILDVGHLATVRNLAAEVKGIHDQVKELRLNNQALQARPTLELPKKGSSETTQQGPALEDDEVVGFDEEANKVINRLVKESKDLDIIPVVGMPGLGKTTLARKIYKDPKLSYEFFGVHWVYVGQSYKIKDVFLNILKFFTRRTEDYQHEDVDALAKVIAGFINKGGRCLICLDDVWETKVIDYVKTIFPENEKGHRVMMTTRNKVLATYANSDPHDLKFLTPKESFELLVKRVFGKKPCPKDLVGHGESIAGKCGGVPLAVVVIAGALRGRPNTSDWIRVERNVVQHLYTNSEESCLKFVEMSYDHLPQEVQTCFLYCGVFPRGFDIPSWKVIRLWIAEGLIKPQESYTLEEIAEFYLNDLVNRNLVILQQKRSDGQIKTCRLHVMLHQFCKKEASNKWLFQEVSLTPDQAIPIEDPNKSRRLCIQPSNLKDFLSKKPSAEHVRSFYCFSSKEKQIRGLTPNDIKLIHKAFPLVRVLDVESLKFLFSKDFNQLFHLRYIAISGDFNAIPLTFGKFWNLQTLILNTSTSESTLDVKADIWNMLQLRHLHTNIPAKLQPPTATTSGKASCLQTLCMVAPESCEKEVLAKACHLKKLSIRGQMAAFLGAYKGGINNLVELKCLEQLKLLNDVLYMNKAPHLPQTFSQLVRTVKKLTLTNTRFAWSEADKLGQLESLEILKFKENAFAGDSWKPKMGFSALRVLWIERAEFETWEASEINFPVLRNLVLMSCDKLETVPFELANLSDLYEMRLENTSKAVKSAKAILESKTDKNIKFNLTIFPPEAGSKATQ
In the case of B1, the “stoichiometry N” value (cryo-EM structure [3]) is reported as 12 and the “stoichiometry N” value (cryo-EM structure [4]) is reported as 6.

B2: NRC0-EEE-3XFlag (active NRC0) (natural protein)
chain: MADAVVEFELLNEKQLELYHVDLLSGVKDEVESLHRELSLMKAFLKDSREKRSEYEYVRELVSQITIVAYEAEDIIDTFVTNAAMQKARSTVRRAFHVFDHSSKLRNVAKEIESIKVKVKEIYDKKMFGIQSLHGGESSHRSPPQKRVPMVEEENVVGFDDEARKISSRLTNGSEELEIISIVGMGGLGKTTLAKKVYTDSSIEFHFYNRAWIYVSQLYSRKEVFLGILDSLSLITDEMYKMNDEKLAGELFSHLRSKRYLVVIDDVWTMEAWDDLQMAFPKTATGSRILLTTRNTEVALHANPEGLPHHLRFLTHEESWELLSKKVFRKGICPLELEDIGLQIAKKCYGLPLAIVVVSGLLLKKEKTRDWWKKIANDVSSYVARDPKQCMDVLALSYKHLPDHLKVCFIYFGVFPEDFEIPVWKLLRLWTSEGFVQKMGQECLEDTAEEYLEDLVDRNLVLVAKKRASGRIKTCRIHDMLRDLSVKMGSEEKFLEVFKESAQNHSLSPISKYHRRLCVHSHFLDFITSRPFGPNVRSFLCFASEEMELLREHTSFLHEAFRLVRVLDLKYINFPRFPTEIVQLVHLRYIALSGNFRVLPASISKLWNLETLIVGTKSRELDIQVDIWKMSQFKHLYTSGLSCLRGPPAKTRKDNADPFVRRNIQTISTVLPDCCKENILARTPGLRKLGIRGKLATLVATNGDSSLFDNLAKLDNLETLKLLNDTFPLPPSQCQIPGLPQSYKFPPNLKKLTLSDTFLDWSHISTLGMLPNLEVLKLKDYAFKGTQWEPLDGGFRLLRVLHIGRTNLEHWNASGHHFPRLQQVFLKHCSSLNEIPFGLVEVSSLQNIELFWPTPAAAASARIIQQEKQEGDIKDNVFKLVIYPPDI
With B2 the “stoichiometry N” value (negative-stain EM) was 6.

B3: NRC4 L9E (natural protein, N. benthamiana)
chain: MADAVVNFEVENLLQLLTDNVKLIGSAKGELENLLKEVQHLKGFLDDAAKLPSDSEQWKVLVEEIQKTVHTAEDAVDKFVVQAKLHKEKNKMARILDVGHLATVRNLAAEVKGIHDQVKELRLNNQALQARPTLELPKKGSSETTQQGPALEDDEVVGFDEEANKVINRLVKESKDLDIIPVVGMPGLGKTTLARKIYKDPKLSYEFFGVHWVYVGQSYKIKDVFLNILKFFTRRTEDYQHEDVDALAKVIAGFINKGGRCLICLDDVWETKVIDYVKTIFPENEKGHRVMMTTRNKVLATYANSDPHDLKFLTPKESFELLVKRVFGKKPCPKDLVGHGESIAGKCGGVPLAVVVIAGALRGRPNTSDWIRVERNVVQHLYTNSEESCLKFVEMSYDHLPQEVQTCFLYCGVFPRGFDIPSWKVIRLWIAEGLIKPQESYTLEEIAEFYLNDLVNRNLVILQQKRSDGQIKTCRLHDMLHQFCKKEASNKWLFQEVSLTPDQAIPIEDPNKSRRLCIQPSNLKDFLSKKPSAEHVRSFYCFSSKEKQIRGLTPNDIKLIHKAFPLVRVLDVESLKFLFSKDFNQLFHLRYIAISGDFNAIPLTFGKFWNLQTLILNTSTSESTLDVKADIWNMLQLRHLHTNIPAKLQPPTATTSGKASCLQTLCMVAPESCEKEVLAKACHLKKLSIRGQMAAFLGAYKGGINNLVELKCLEQLKLLNDVLYMNKAPHLPQTFSQLVRTVKKLTLTNTRFAWSEADKLGQLESLEILKFKENAFAGDSWKPKMGFSALRVLWIERAEFETWEASEINFPVLRNLVLMSCDKLETVPFELANLSDLYEMRLENTSKAVKSAKAILESKTDKNIKFNLTIFPPEAGSKATQ
With B3 the “stoichiometry N” value (negative-stain EM) was 6.

B4: wild type NRC4, Flag-tagged (natural protein, N. benthamiana)
chain: MADAVVNFLVENLLQLLTDNVKLIGSAKGELENLLKEVQHLKGFLDDAAKLPSDSEQWKVLVEEIQKTVHTAEDAVDKFVVQAKLHKEKNKMARILDVGHLATVRNLAAEVKGIHDQVKELRLNNQALQARPTLELPKKGSSETTQQGPALEDDEVVGFDEEANKVINRLVKESKDLDIIPVVGMPGLGKTTLARKIYKDPKLSYEFFGVHWVYVGQSYKIKDVFLNILKFFTRRTEDYQHEDVDALAKVIAGFINKGGRCLICLDDVWETKVIDYVKTIFPENEKGHRVMMTTRNKVLATYANSDPHDLKFLTPKESFELLVKRVFGKKPCPKDLVGHGESIAGKCGGVPLAVVVIAGALRGRPNTSDWIRVERNVVQHLYTNSEESCLKFVEMSYDHLPQEVQTCFLYCGVFPRGFDIPSWKVIRLWIAEGLIKPQESYTLEEIAEFYLNDLVNRNLVILQQKRSDGQIKTCRLHDMLHQFCKKEASNKWLFQEVSLTPDQAIPIEDPNKSRRLCIQPSNLKDFLSKKPSAEHVRSFYCFSSKEKQIRGLTPNDIKLIHKAFPLVRVLDVESLKFLFSKDFNQLFHLRYIAISGDFNAIPLTFGKFWNLQTLILNTSTSESTLDVKADIWNMLQLRHLHTNIPAKLQPPTATTSGKASCLQTLCMVAPESCEKEVLAKACHLKKLSIRGQMAAFLGAYKGGINNLVELKCLEQLKLLNDVLYMNKAPHLPQTFSQLVRTVKKLTLTNTRFAWSEADKLGQLESLEILKFKENAFAGDSWKPKMGFSALRVLWIERAEFETWEASEINFPVLRNLVLMSCDKLETVPFELANLSDLYEMRLENTSKAVKSAKAILESKTDKNIKFNLTIFPPEAGSKATQ
With B4 the “stoichiometry N” value [5] was 2.
